Data reported in patent US20250145729A1 (DENALI THERAPEUTICS, published 2025).
Numbering of substitutions follows the chain as printed. Where two headings read alike, the source gives them in different places.

T1: circularly permuted human TfR apical domain (human)
T1 construct: TfR residues 326-379 stand N-terminal to 194-296, loop 297-325 deleted; also called huTfR Apical Domain
T1 chain: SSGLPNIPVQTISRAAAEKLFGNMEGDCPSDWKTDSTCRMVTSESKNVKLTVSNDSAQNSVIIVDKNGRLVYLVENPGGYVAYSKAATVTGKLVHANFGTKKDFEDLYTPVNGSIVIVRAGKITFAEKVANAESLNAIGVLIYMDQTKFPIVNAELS

B1: 6.5.11.1 bivalent (Fc fusion)
chain: APELLGGPSVFLFPPKPKDTLMISRTPEVTCVVVDVSHEDPEVKFNWYVDGVEVHNAKTKPREEQYNSTYRVVSVLTVLHQDWLNGKEYKCKVSNKALPAPIEKTISKAKGQPREPQVYTLPPSRDELTKNQVSLTCLVKGFYPSDIAVNWFSNGQIENNYKTTPPVLDSDGSFFLYSKLTVDKSRWQQGNLFACEVMHEALHNHYTYKLLSLSPGK
notes: also called Clone 6.5.11.1 bivalent
B2: 6.5.11.5.42 bivalent (Fc fusion)
chain: B1 chain with L4A, L5A, N150Y, N154G, I157R
notes: both Fc with LALA
B3: Clone 27: LLB2-10-8 monovalent, non-binding Fabs, LALAPG (Fc fusion)
chain 1: APEAAGGPSVFLFPPKPKDTLMISRTPEVTCVVVDVSHEDPEVKFNWYVDGVEVHNAKTKPREEQYNSTYRVVSVLTVLHQDWLNGKEYKCKVSNKALGAPIEKTISKAKGQPREPQVYTLPPSRDELTKNQVSLWCLVKGFYPSDIAVLWNSRFVLENNYKTTPPVLDSDGSFFLYSKLTVDKSRWQQGEIFACNVYHEALHNHYTFKNLALSPGK
chain 2: APEAAGGPSVFLFPPKPKDTLMISRTPEVTCVVVDVSHEDPEVKFNWYVDGVEVHNAKTKPREEQYNSTYRVVSVLTVLHQDWLNGKEYKCKVSNKALGAPIEKTISKAKGQPREPQVYTLPPSRDELTKNQVSLSCAVKGFYPSDIAVEWESNGQPENNYKTTPPVLDSDGSFFLVSKLTVDKSRWQQGNVFSCSVMHEALHNHYTQKSLSLSPGK
notes: effector negative (LALAPG)
B4: human CD98hc (receptor)
chain: CRELPAQKWWHTGALYRIGDLQAFQGHGAGNLAGLKGRLDYLSSLKVKGLVLGPIHKNQKDDVAQTDLLQIDPNFGSKEDFDSLLQSAKKKSIRVILDLTPNYRGENSWFSTQVDTVATKVKDALEFWLQAGVDGFQVRDIENLKDASSFLAEWQNITKGFSEDRLLIAGTNSSDLQQILSLLESNKDLLLTSSYLSDSGSTGEHTKSLVTQYLNATGNRWCSWSLSQARLLTSFLPAQLLRLYQLMLFTLPGTPVFSYGDEIGLDAAALPGQPMEAPVMLWDESSFPDIPGAVSANMTVKGQSEDPGSLLSLFRRLSDQRSKERSLLHGDFHAFSAGPGLFSYIRHWDQNERFLVVLNFGDVGLSAGLQASDLPASASLPAKADLLLSTQPGREEGSPLELERLKLEPHEGLLLRFPYAA
notes: also called huCD98hc; CD98 heavy chain
B5: human CD98hc (receptor)
chain: B4 chain
notes: as for B4

Key:
[1] = target: T1, circularly permuted human TfR apical …; test: Biacore SPR, Fc-Fab fusion
[2] = target: T1, circularly permuted human TfR apical …; test: Biacore SPR, Fc-Fab fusion; bivalent, LALA
human CD98hc = target: B4; test: affinity as listed in study design table; method not given there
[3] = target: T2, Clone 8: LLB2-10-6 monovalent, non-binding Fabs (Homo sapiens (Human), UniProt P0DOX5 233-449 = IgG part; P0DOX5 233-449 = IgG part, T366W); test: as above
T2 construct: CD98hc site on the knob Fc only; effector positive

[4] = target: T2, Clone 8: LLB2-10-6 monovalent, …; test: as above; remark: listed apart in the source
[5] = target: T2, Clone 8: LLB2-10-6 monovalent, …; test: as above; remark: listed apart in the source
[6] = target: T3, Clone 13: LLB1-3-16 monovalent, non-binding Fabs (Homo sapiens (Human), UniProt P0DOX5 233-449 = IgG part; P0DOX5 233-449 = IgG part, T366W); test: as above
T3 construct: CD98hc site on the knob Fc only; effector positive

[7] = target: T2, Clone 8: LLB2-10-6 monovalent, …; test: as above; remark: listed apart in the source
[8] = target: T4, Clone 18: LLB2-37 monovalent, non-binding Fabs (Homo sapiens (Human), UniProt P0DOX5 233-449 = IgG part; P0DOX5 233-449 = IgG part, T366W); test: as above
T4 construct: CD98hc site on the knob Fc only; effector positive

LLB2.10.8.10.1 = target: T5, LLB2.10.8.10.1 (Homo sapiens (Human), UniProt P0DOX5 233-449 = IgG part; P0DOX5 233-449 = IgG part, T366W); test: SPR (Biacore)
T5 construct: Fc parts only
How it was run: (§1)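 The values are Kd for CD98hc binding by engineered Fc polypeptides, determined by surface plasmon resonance on a Biacore instrument. Clones were tested as Fc-Fab fusions carrying anti-BACE1 Fabs, in bivalent form or in a monovalent knob/hole form with the CD98hc-binding site only on the knob chain.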

LLB2-10-8-d1 MV = target: T6, LLB2-10-8-d1 MV (Homo sapiens (Human), UniProt P0DOX5 233-449 = IgG part; P0DOX5 233-449 = IgG part, T366W); test: SPR (Biacore)
T6 construct: Fc parts only; MV = monovalent
How it was run: as §1

LLB2-10-6 Mono = target: T7, LLB2-10-6 Mono (Homo sapiens (Human), UniProt P0DOX5 233-449 = IgG part; P0DOX5 233-449 = IgG part, T366W); test: SPR (Biacore)
T7 construct: Fc parts only
How it was run: as §1

LLB2.10.8.10.8 = target: T8, LLB2.10.8.10.8 (Homo sapiens (Human), UniProt P0DOX5 233-449 = IgG part; P0DOX5 233-449 = IgG part, T366W); test: SPR (Biacore)
T8 construct: Fc parts only
How it was run: as §1

LLB2.10.8.10.3 = target: T9, LLB2.10.8.10.3 (Homo sapiens (Human), UniProt P0DOX5 233-449 = IgG part; P0DOX5 233-449 = IgG part, T366W); test: SPR (Biacore)
T9 construct: Fc parts only
How it was run: as §1

[9] = target: T10, LLB2-37 (monovalent, Table A6) (Homo sapiens (Human), UniProt P0DOX5 233-449 = IgG part; P0DOX5 233-449 = IgG part, T366W); test: SPR (Biacore)
T10 construct: Fc parts only
How it was run: as §1

LLB2-10-8-d3 MV = target: T11, LLB2-10-8-d3 MV (Homo sapiens (Human), UniProt P0DOX5 233-449 = IgG part; P0DOX5 233-449 = IgG part, T366W); test: SPR (Biacore)
T11 construct: Fc parts only; MV = monovalent
How it was run: as §1

LLB2.10.8.4.12 = target: T12, LLB2.10.8.4.12 (Homo sapiens (Human), UniProt P0DOX5 233-449 = IgG part; P0DOX5 233-449 = IgG part, T366W); test: SPR (Biacore)
T12 construct: Fc parts only
How it was run: as §1

LLB2.10.8.12.5 = target: T13, LLB2.10.8.12.5 (Homo sapiens (Human), UniProt P0DOX5 233-449 = IgG part; P0DOX5 233-449 = IgG part, T366W); test: SPR (Biacore)
T13 construct: Fc parts only
How it was run: as §1

LLB2.10.8.2.1 = target: T14, LLB2.10.8.2.1 (Homo sapiens (Human), UniProt P0DOX5 233-449 = IgG part; P0DOX5 233-449 = IgG part, T366W); test: SPR (Biacore)
T14 construct: Fc parts only
How it was run: as §1

Binder: B1
Kd [1]: 20000 to 40000 nM

Binder: B2
Kd [2]: 2000 nM

Binder: B3
Kd (human CD98hc): 100 to 200 nM

Binder: B4
Kd [3]: 230 nM | Kd [4]: 260 nM | Kd [5]: 260 nM | Kd [6]: 32 nM | Kd [7]: 260 nM | Kd [8]: 390 nM

Binder: B5
Kd (LLB2.10.8.10.1): 54 nM | Kd (LLB2-10-8-d1 MV): 250 nM | Kd (LLB2-10-6 Mono): 420 nM | Kd (LLB2.10.8.10.8): 94 nM | Kd (LLB2.10.8.10.3): 43 nM | Kd [9]: 390 nM | Kd (LLB2-10-8-d3 MV): 470 nM | Kd (LLB2.10.8.4.12): 15 nM | Kd (LLB2.10.8.12.5): 230 nM | Kd (LLB2.10.8.2.1): 110 nM
